Changes are numbered by the printed parent chain.

The values below come from patent US20080118978A1 (published 2008).

For assay [1], the target named is T1, CD10 (human, UniProt P08473 2-750).
T1 construct: Endogenous CD10 of human cell lines: on Raji, RTX/Raji and Ramos cells in flow cytometry; In the ELISA it was a Triton X-100-dissolved membrane fraction of SBC-3 cells coated on the plate; also called CALLA; neutral endopeptidase
Put plainly: flow cytometry on Raji and RTX/Raji cells, FITC anti-mouse IgG secondary. How it is done:
The supernatant liquid was removed, cell pellets were loosened and 10 μL of FcR blocking reagent (manufactured by Miltenyi Biotec) was added thereto. After the mixture was allowed to stand on ice for about 30 minutes, an FACS buffer was added thereto and washed by centrifugal separation (about 5000×g for 1 minutes at 4° C.) was repeated three times. An FACS buffer was added so as to give a cell density of 2×10⁷ cells/ml for suspension and each 50 μL thereof was aliquated into a tube. The FACS buffer (50 μL) was added to each tube to suspend and the primary antibody solution was added thereto in an amount of 2.5 μL per tube. With regard to the primary antibody solution, each of mouse anti-CD10 antibody NL-1 [Proc. Natl. Acad. Sci. USA, 79, 4386 (1982)], anti-CD20 antibody B1 (manufactured by Beckman Coulter), FITC-labeled anti-CD19 antibody J4.119 (manufactured by Beckman Coulter) and FITC-labeled anti-CD22 antibody SJ.10.1H11 (manufactured by Beckman Coulter) was used. […] It was filtered by a Nylon mesh and transferred to a test tube to prepare a sample to be measured. Expression of CD antigen on the cell surface was measured using a flow cytometer Epics Elite (manufactured by Beckman Coulter).
For orientation: A flow cytometer gives signals particle by particle.

Assay [2] has as its target T1, CD10. Put plainly: ELISA on plate-coated membrane fraction of CD10-expressing SBC-3 cells. As for the experimental part: As to an antigen, a membrane fraction prepared from human lung small-cell tumor cell line SBC-3 cells (JCRB 0818) which highly express CD10 was used. The membrane fraction was suspended in 20 mM HEPES (pH 7.4) buffer containing 1 mM EDTA and 250 mM sucrose and cells were crushed using a homogenizer, then centrifugal separation was carried out at a low speed of 8,000×g so that granules in the cells and uncrushed cells were precipitated and removed and a centrifugal separation was carried out at a high speed of 80,000×g to separate the desired cell membrane. The separated membrane fraction was dissolved in PBS containing 0.1% of Triton-X 100 whereby protein was quantified, then made 10 μg/mL, dispensed at 50 μL/well into a 96-well plate for ELISA (manufactured by Gliner) and allowed to stand at 4° C. for one night for adsorption. After washing with PBS, 1% BSA-PBS was added in an amount of 100 μL/well and the reaction was carried out at room temperature for 1 hour to block the remaining active groups were blocked. […] After the reaction, each well was washed with Tween-PBS, a peroxidase-labeled goat anti-human IgG (H&L) antibody solution diluted 2,000-fold with 1% BSA-PBS was added as a secondary antibody solution in an amount of 50 μL/well and reaction was carried out at room temperature for 1 hour. After the reaction, washing was carried out with Tween-PBS, an ABTS substrate solution was added in an amount of 50 μL/well to develop color and OD415 was measured.

T1 sequence (P08473 2-750 limits assumed): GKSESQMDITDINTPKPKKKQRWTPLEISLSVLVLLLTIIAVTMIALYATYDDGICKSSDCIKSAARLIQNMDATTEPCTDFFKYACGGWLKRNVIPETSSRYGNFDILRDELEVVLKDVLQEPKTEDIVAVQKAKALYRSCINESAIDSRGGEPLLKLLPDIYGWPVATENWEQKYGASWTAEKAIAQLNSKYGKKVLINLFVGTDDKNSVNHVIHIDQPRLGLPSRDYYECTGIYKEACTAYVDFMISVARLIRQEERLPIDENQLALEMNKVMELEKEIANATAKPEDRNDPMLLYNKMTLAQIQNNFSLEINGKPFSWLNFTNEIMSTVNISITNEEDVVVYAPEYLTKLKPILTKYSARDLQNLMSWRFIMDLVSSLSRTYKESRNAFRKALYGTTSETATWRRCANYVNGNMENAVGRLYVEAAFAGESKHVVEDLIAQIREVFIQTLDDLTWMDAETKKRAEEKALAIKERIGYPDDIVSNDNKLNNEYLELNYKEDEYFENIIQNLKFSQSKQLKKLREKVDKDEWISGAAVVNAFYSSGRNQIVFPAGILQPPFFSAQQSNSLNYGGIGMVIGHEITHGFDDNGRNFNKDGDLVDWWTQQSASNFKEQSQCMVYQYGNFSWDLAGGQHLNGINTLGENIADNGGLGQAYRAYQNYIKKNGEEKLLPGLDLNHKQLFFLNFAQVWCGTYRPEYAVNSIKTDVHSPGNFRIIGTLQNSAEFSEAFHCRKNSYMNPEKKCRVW

B1: mouse anti-CD10 antibody NL-1 (antibody, V domains shown)
VH: DVQLVESGGGLVQPGGSRKLSCAASGFTFSSFGMHWVRQAPEKGLEWVAYISGGSYTIYYADTVKGRFTISRDNPKNTLFLQMTSLRSEDTAMYYCASSYGNFWYFDVWGAGTTVTVSS
VL: EIVLTQSPALMAASPGEKVTIACSVSSSISSSNLHWYQQKSETSPKPWIYGTSNLASGVPVRFSGSGSGTSYFLTISSMEAEDAATYYCQQWSSYPLTFGGGTKLEIK
notes: Mouse hybridoma antibody; H chain cloned with a mouse Cgamma2a probe and L chain with a Ckappa probe; also called anti-CD10 mouse antibody NL-1
Take B1: the binding result with CD10 [1] is given as “binds”.

B2: anti-CD10 humanized antibody HV0LV9 MS705 (antibody, V domains shown)
VH: EVQLVESGGGVVQPGRSLRLSCAASGFTFSSFGMHWVRQAPGKGLEWVAYISGGSYTIYYADTVKGRFTISRDNSKNTLYLQMNSLRAEDTAVYYCARSYGNFWYFDVWGQGTTVTVSS
VL: DIVMTQSPDSLAVSLGERATIACSVSSSISSSNLHWYQQKPGQSPKPWIYGTSNLASGVPVRFSGSGSGTSYFLTISSLQAEDVATYYCQQWSSYPLTFGQGTKVEIKR
notes: also called HV0LV9 MS705 antibody; FERM BP-10099
Regarding B2, the binding result in the assay with CD10 [2] is listed as “binds”.

B3: anti-CD10 humanized antibody HV0LV0 MS705 (antibody, V domains shown)
VH: B2 VH
VL: B2 VL with A22N, S44P, P47L, W48L, V61D, S71D, Y72F, F73T, T86V
notes: also called HV0LV0 MS705 antibody
As to B3, the binding result with CD10 [2] was “binds”.

B4: anti-CD10 humanized antibody HV2LV9 MS705 (antibody, V domains shown)
VH: B2 VH with G42E, R98S
VL: B2 VL
notes: also called HV2LV9 MS705 antibody
For B4, in the assay with CD10 [2], the binding result was “binds”.
